Measurements as given in PMC8211825, “Molecular mechanism of calcium induced trimerization of C1q-like domain of otolin-1 from human and zebrafish” (Scientific Reports, 2021).
Numbering of substitutions follows the chain as printed. In names and notes the source's numbering stands.

B1: hOtolC1q E417A (domain or fragment, human, UniProt A6NHN0 338-473, looked up)
chain: ARVPRSAFSAGLSKPFPPPNIPIKFEKILYNDQGNYSPVTGKFNCSIPGTYVFSYHITVRGRPARISLVAQNKKQFKSRATLYGQEIDQASLLVILKLSAGDQVWLEVSKDWNGVYVSAEDDSIFTGFLLYPEETS
notes: gC1q (C1q-like) domain of human otolin-1, UniProt A6NHN0, with E417A
B2: hOtolC1q E417A D425A (domain or fragment, human, UniProt A6NHN0 338-473, looked up)
chain: B1 chain with D88A
notes: gC1q (C1q-like) domain of human otolin-1, UniProt A6NHN0, with E417A and D425A; also called double mutant
B3: hOtolC1q D425A (domain or fragment, human, UniProt A6NHN0 338-473, looked up)
chain: B1 chain with A80E, D88A
notes: gC1q (C1q-like) domain of human otolin-1, UniProt A6NHN0, with D425A
B4: dOtolC1q D432A (domain or fragment, zebrafish (Danio rerio), UniProt A5PN28 351-488, looked up)
chain: AVQKRSAFSVGLFPSRSFPPPGLPIRFDKIIYNEEAHWDPNASKFNCTHGGVYVFSYYITVRNRPLRAALVVNGIRKLRTRASLYGQDIDQASNMAVLRLSSGDQVWLETLRDWNGVYSSSEDDSTFSGFLLYADATK
notes: gC1q (C1q-like) domain of zebrafish otolin-1, UniProt A5PN28, with D432A; Same construct as m6 with the mutation
B5: dOtolC1q D440A (domain or fragment, zebrafish (Danio rerio), UniProt A5PN28 351-488, looked up)
chain: B4 chain with A82D, D90A
notes: gC1q (C1q-like) domain of zebrafish otolin-1, UniProt A5PN28, with D440A; Same construct as m6 with the mutation
B6: dOtolC1q D432A D440A (domain or fragment, zebrafish (Danio rerio), UniProt A5PN28 351-488, looked up)
chain: B4 chain with D90A
notes: gC1q (C1q-like) domain of zebrafish otolin-1, UniProt A5PN28, with D432A and D440A; Same construct as m6 with the two mutations; also called double mutant

Biological target: the molecule itself
Test: AUC; sedimentation velocity, c(s) analysis in SEDFIT; sevenfold (hOtolC1q forms) or 14-fold (dOtolC1q forms) molar excess of TbCl3; protein 0.20-0.25 mg/mL; self-association of the gC1q domain into trimers

Protein	stoichiometry N
B1	3
B2	3
B3	3
B4	3
B5	3
B6	3
